Test results taken from US20140335107A1 (published 2014).
Where no end group is shown, it is not given here.

T1: extracellular domain of human CD79b fused to Fc (huCD79becd-Fc) (UniProt P40259 29-159)
T1 chain: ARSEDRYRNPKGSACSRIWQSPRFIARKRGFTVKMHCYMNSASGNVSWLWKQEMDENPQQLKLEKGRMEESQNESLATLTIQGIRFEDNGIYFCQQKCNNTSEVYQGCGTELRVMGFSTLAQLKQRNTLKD

T2: extracellular domain of human CD79b (huCD79becd) (UniProt P40259 29-159)
T2 chain: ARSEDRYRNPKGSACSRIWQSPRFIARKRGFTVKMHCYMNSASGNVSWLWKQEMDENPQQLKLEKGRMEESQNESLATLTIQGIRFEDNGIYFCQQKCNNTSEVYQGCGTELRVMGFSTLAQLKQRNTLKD

T3: 16 amino acid peptide containing the epitope for MA79b (ARSEDRYRNPKGSACK) (also: biotinylated (site not given here))
T3 peptide: ARSEDRYRNPKGSACK


Experiments:
[1] = biological target: T1, extracellular domain of human CD79b …; assay: Biacore; Fab
[2] = biological target: T2, extracellular domain of human CD79b …; assay: Biacore; Fab
[3] = biological target: T2, extracellular domain of human CD79b …; assay: Biacore; IgG
[4] = biological target: T1, extracellular domain of human CD79b …; assay: Biacore; IgG
[5] = biological target: T3, 16 amino acid peptide containing the …; assay: Biacore; IgG

| Binder | Kd [3] | further results |
| --- | --- | --- |
| huMA79b graft variant with HVR-L2 of SEQ ID NO: 22 (huMA79b L2-2), Fab (Fab, V domains shown) VH: EVQLVESGGGLVQPGGSLRLSCAASGYTFSSYWIEWVRQAPGKGLEWVGEILPGGGDTNYNEIFKGRFTISADTSKNTAYLQMNSLRAEDTAVYYCTRRVPVYFDYWGQGTLVTVSS VL: DIQMTQSPSSLSASVGDRVTITCKASQSVDYDGDSFLNWYQQKPGKAPKLLIYAARKLGRGVPSRFSGSGSGTDFTLTISSLQPEDFATYYCQQSNEDPLTFGQGTKVEIKR | – | Kd [1]: 44 nM; Kd [2]: 39 nM |
| MA79b-grafted humanized antibody (huMA79b graft), IgG (antibody, V domains shown) VH: EVQLVESGGGLVQPGGSLRLSCAASGYTFSSYWIEWVRQAPGKGLEWVGEILPGGGDTNYNEIFKGRFTISADTSKNTAYLQMNSLRAEDTAVYYCTRRVPVYFDYWGQGTLVTVSS VL: DIQMTQSPSSLSASVGDRVTITCKASQSVDYDGDSFLNWYQQKPGKAPKLLIYAASNLESGVPSRFSGSGSGTDFTLTISSLQPEDFATYYCQQSNEDPLTFGQGTKVEIKR | 261 nM | – |
| MA79b-grafted humanized antibody variant L2-2 (huMA79b L2-2), IgG (antibody, V domains shown) VH: EVQLVESGGGLVQPGGSLRLSCAASGYTFSSYWIEWVRQAPGKGLEWVGEILPGGGDTNYNEIFKGRFTISADTSKNTAYLQMNSLRAEDTAVYYCTRRVPVYFDYWGQGTLVTVSS VL: DIQMTQSPSSLSASVGDRVTITCKASQSVDYDGDSFLNWYQQKPGKAPKLLIYAARKLGRGVPSRFSGSGSGTDFTLTISSLQPEDFATYYCQQSNEDPLTFGQGTKVEIKR | 43 nM | – |
| MA79b (Fab) (antibody, V domains shown) VH: EVQLQQSGAELMKPGASVKISCKATGYTFSSYWIEWVKQRPGHGLEWIGEILPGGGDTNYNEIFKGKATFTADTSSNTAYMQLSSLTSEDSAVYYCTRRVPVYFDYWGQGTSVTVSS VL: DIVLTQSPASLAVSLGQRATISCKASQSVDYDGDSFLNWYQKPGQPPKLFIYAASNLESGIPARFSGSGSGTDFTLNIHPVEEEDAATYYCQQSNEDPLTFGAGTELELKR | – | Kd [1]: 200 nM |

Further binders by falling Kd [3], results first:

| Kd [3] | Binder | further results |
| --- | --- | --- |
| 42 nM | hu MA79b H1-6 (IgG) (antibody, V domains shown) VH: EVQLVESGGGLVQPGGSLRLSCAASGYPFTRYWINWVRQAPGKGLEWVGEILPGGGDTNYNEIFKGRFTISADTSKNTAYLQMNSLRAEDTAVYYCTRRVPVYFDYWGQGTLVTVSS VL: DIQMTQSPSSLSASVGDRVTITCKASQSVDYDGDSFLNWYQQKPGKAPKLLIYAASNLESGVPSRFSGSGSGTDFTLTISSLQPEDFATYYCQQSNEDPLTFGQGTKVEIKR | – |
| 29 nM | hu MA79b H3-10 (IgG) (antibody, V domains shown) VH: EVQLVESGGGLVQPGGSLRLSCAASGYTFSSYWIEWVRQAPGKGLEWVGEILPGGGDTNYNEIFKGRFTISADTSKNTAYLQMNSLRAEDTAVYYCTRRVPIRLDYWGQGTLVTVSS VL: DIQMTQSPSSLSASVGDRVTITCKASQSVDYDGDSFLNWYQQKPGKAPKLLIYAASNLESGVPSRFSGSGSGTDFTLTISSLQPEDFATYYCQQSNEDPLTFGQGTKVEIKR | – |
| 4.7 nM | murine anti-CD79b monoclonal antibody MA79b (antibody, V domains shown) VH: EVQLQQSGAELMKPGASVKISCKATGYTFSSYWIEWVKQRPGHGLEWIGEILPGGGDTNYNEIFKGKATFTADTSSNTAYMQLSSLTSEDSAVYYCTRRVPVYFDYWGQGTSVTVSS VL: DIVLTQSPASLAVSLGQRATISCKASQSVDYDGDSFLNWYQQKPGQPPKLFIYAASNLESGIPARFSGSGSGTDFTLNIHPVEEEDAATYYCQQSNEDPLTFGAGTELELKR | Kd [4]: 2 nM |
| 3 nM | MA79b-grafted humanized antibody variant L2/H3 (huMA79b L2/H3), IgG (antibody, V domains shown) VH: EVQLVESGGGLVQPGGSLRLSCAASGYTFSSYWIEWVRQAPGKGLEWVGEILPGGGDTNYNEIFKGRFTISADTSKNTAYLQMNSLRAEDTAVYYCTRRVPIRLDYWGQGTLVTVSS VL: DIQMTQSPSSLSASVGDRVTITCKASQSVDYDGDSFLNWYQQKPGKAPKLLIYAARKLGRGVPSRFSGSGSGTDFTLTISSLQPEDFATYYCQQSNEDPLTFGQGTKVEIKR | Kd [4]: 2 nM; Kd [5]: 1 nM |
